# Experimental data as given in paper PMC11372445 (Cell Reports, 2024).
# What was measured:
# [1] = molecular target: K6 diUb phosphorylated on S65 of the proximal Ub (UniProt P0CG47, K6R); assay: pull-down
# [2] = molecular target: K6 diUb phosphorylated on S65 of both Ub molecules (UniProt P0CG47, K6R); assay: pull-down
# [3] = molecular target: K6 diUb phosphorylated on S65 of the distal Ub (UniProt P0CG47, K6R); assay: pull-down
# [4] = molecular target: M1-linked diubiquitin (UniProt P0CG47); assay: crystal structure
# [5] = molecular target: the molecule itself; assay: crystal structure
# [6] = molecular target: NEMO UBAN (aa 257–364) (human, UniProt Q9Y6K9 257-364); assay: pull-down
# [7] = molecular target: M1-linked diubiquitin (UniProt P0CG47); assay: pull-down
binder,measurement,setting,value
GST-tagged TAB2 NZF (aa 585–693) (domain or fragment) QIPSLEEMQQLRSCNRQLQIDIDCLTKEIDLFQARGPHFNPSAIHNFYDNIGFVGPVPPKPKDQRSIIKTPKTQDTEDDEGAQWNCTACTFLNHPALIRCEQCEMPRHF,binding result,[1],binds
same,binding result,[2],binds
same,binding result,[3],binds
"RGRWACQSCTFENEAAAVLCSICERPRLA (domain or fragment) [HOIP NZF1 (aa 351–379), as crystallised]",binding result,[4],binds
"OPTN UBAN (aa 419–512) C472S, S473E (domain or fragment) DRAVLKELSEKLELAEKALASKQLQMDEMKQTIAKQEEDLETMTILRAQMEVYSEDFHAERAAREKIHEEKEQLALQLAVLLKENDAFEDGGRQ",binding result,[5],binds
RGRWACQSCTFENEAAAVLCSICERPRLA (domain or fragment) [His6-SUMO-HOIP NZF1 (aa 351–379)],binding result,[6],binds
NEMO UBAN (257–364) K285C/C347S chemically ubiquitinated on K285C with Ub G76C (other) chain 1: GMQLEDLKQQLQQAEEALVAKQEVIDKLCEEAEQHKIVMETVPVLKAQADIYKADFQAERQAREKLAEKKELLQEQLEQLQREYSKLKASSQESARIEDMRKRHVEVS chain 2: […],binding result,[7],binds
